Literature values as cited in paper PMC4958339.

Experiments:
Pins/LGN = Pins/LGN (UniProt Q8VDU0)
Lgl = Lgl (UniProt P08111)
UniProt P08111, sequence (P08111 648-670): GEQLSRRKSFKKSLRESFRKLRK

UniProt Q8VDU0, sequence (Q8VDU0 392-414): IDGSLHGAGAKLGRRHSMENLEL

Dlg GUK (from UniProt Q12959)
Kd (Pins/LGN): 0.33 µM | Kd (Lgl): 10.2 µM
